According to article PMC12045370:

Legend:
[1] = molecular target: microtubules grown from purified bovine brain tubulin (bovine) (UniProt Q6B856); test: optical trap rupture force assay; benzonase-treated kinetochores on anti-penta-His beads; dynamic microtubules grown from coverslip-anchored GMPCPP seeds; BRB80, 1 mM GTP, 23°C; force ramp 0.25 pN/s until detachment
[2] = molecular target: microtubules grown from purified bovine brain tubulin (bovine) (UniProt Q6B856); test: optical trap rupture force assay; untreated kinetochores on anti-penta-His beads; dynamic microtubules grown from coverslip-anchored GMPCPP seeds; BRB80, 1 mM GTP, 23°C; force ramp 0.25 pN/s until detachment

Sequence of UniProt Q6B856 (Q6B856 whole entry, looked up): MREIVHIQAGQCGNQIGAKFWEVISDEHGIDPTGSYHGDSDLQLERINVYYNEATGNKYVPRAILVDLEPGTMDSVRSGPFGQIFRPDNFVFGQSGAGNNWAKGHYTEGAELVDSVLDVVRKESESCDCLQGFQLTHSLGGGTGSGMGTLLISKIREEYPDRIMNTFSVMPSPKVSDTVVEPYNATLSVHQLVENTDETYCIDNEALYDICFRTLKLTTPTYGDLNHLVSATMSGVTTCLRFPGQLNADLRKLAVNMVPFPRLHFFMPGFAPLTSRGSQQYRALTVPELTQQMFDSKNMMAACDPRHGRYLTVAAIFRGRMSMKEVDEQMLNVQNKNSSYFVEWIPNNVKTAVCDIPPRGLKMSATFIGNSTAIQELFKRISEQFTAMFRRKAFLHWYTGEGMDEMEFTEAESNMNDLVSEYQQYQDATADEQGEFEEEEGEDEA

| Substance | median rupture force [1] | median rupture force [2] |
| --- | --- | --- |
| K. marxianus kinetochore particles purified via Dsn1-6His-3M3DK (from UniProt A0ABX6F0Z3 1-547) (complex) | 6.4 pN | 7.5 pN |
| S. cerevisiae kinetochore particles purified via Dsn1-6His-3M3DK (from UniProt P40568 1-576) (complex) |  | 7.2 |
